Experimental data: patent US20220048993A1 (published 2022)
Substitutions are numbered along the chain they refer to. In names and notes the source's numbering stands.

Legend:
[1] = target: T1, recombinant cynomolgus E11 protein (cynomolgus monkey); experiment: SPR, mIgG2a captured, monovalent
T1 chain: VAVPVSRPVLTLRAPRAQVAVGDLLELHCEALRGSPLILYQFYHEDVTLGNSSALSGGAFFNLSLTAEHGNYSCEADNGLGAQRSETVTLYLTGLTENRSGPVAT

[2] = target: T1, recombinant cynomolgus E11 protein; experiment: SPR, mIgG2a captured, monovalent
[3] = target: T2, cynomolgus monkey FcRH5, full-length (cynomolgus monkey); experiment: FACS, SVT2 cells, TDB 3 µg/ml
T2 construct: also called cyno FcRH5; Cynomolgus FcRH5
T2 chain: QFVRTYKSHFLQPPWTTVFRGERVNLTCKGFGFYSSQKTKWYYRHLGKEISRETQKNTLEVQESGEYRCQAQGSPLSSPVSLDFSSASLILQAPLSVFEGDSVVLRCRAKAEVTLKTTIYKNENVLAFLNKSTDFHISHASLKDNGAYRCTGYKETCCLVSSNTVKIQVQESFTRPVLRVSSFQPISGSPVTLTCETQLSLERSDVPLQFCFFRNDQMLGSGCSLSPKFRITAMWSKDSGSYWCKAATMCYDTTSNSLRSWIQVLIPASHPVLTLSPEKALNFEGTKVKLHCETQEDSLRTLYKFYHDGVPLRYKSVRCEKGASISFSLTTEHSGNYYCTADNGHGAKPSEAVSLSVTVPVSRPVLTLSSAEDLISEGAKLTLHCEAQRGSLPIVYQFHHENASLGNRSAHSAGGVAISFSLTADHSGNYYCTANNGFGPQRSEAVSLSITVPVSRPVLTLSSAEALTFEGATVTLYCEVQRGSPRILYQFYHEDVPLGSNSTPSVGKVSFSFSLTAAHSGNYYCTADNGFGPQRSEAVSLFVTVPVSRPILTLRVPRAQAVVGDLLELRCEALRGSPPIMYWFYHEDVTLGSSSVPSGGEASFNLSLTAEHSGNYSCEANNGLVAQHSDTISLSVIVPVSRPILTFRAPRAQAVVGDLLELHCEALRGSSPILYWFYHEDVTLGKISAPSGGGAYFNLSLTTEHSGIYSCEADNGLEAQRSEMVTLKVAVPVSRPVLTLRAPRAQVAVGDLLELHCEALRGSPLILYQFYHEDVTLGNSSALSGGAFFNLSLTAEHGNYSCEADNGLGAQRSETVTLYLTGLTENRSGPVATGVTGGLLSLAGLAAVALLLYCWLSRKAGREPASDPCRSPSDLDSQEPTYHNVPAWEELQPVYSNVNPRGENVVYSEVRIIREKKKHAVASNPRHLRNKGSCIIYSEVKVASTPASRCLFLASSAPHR
Procedure: Human FcRH5, cyno FcRH5, human FcRH1, FcRH2, FcRH3, and FcRH4 transfected mouse SVT2 cells were used to test binding and cross-reactivity of FcRH5 TDBs. The method was carried out as follows. Cultured SVT2 cells were lifted using non-enzyme cell dissociation buffer (Sigma, #C5914). 1×10⁵ cells were suspended in 100 μL and incubated with FcRH5 TDBs at 3 μg/ml. Cells were then washed with FACS buffer (PBS, 1% BSA, 2 mM EDTA) and incubated with goat-anti-human Fc PE (Jackson Immunoresearch, #109-116-170) at a 1:100 dilution. Cells were washed twice with FACS buffer before flow cytometry analysis was carried out on a FACSCalibur.

[4] = target: T3, soluble cynomolgus FcRH5 protein fragment (cynomolgus monkey); experiment: SPR, hIgG capture, 1:1 model
T3 chain: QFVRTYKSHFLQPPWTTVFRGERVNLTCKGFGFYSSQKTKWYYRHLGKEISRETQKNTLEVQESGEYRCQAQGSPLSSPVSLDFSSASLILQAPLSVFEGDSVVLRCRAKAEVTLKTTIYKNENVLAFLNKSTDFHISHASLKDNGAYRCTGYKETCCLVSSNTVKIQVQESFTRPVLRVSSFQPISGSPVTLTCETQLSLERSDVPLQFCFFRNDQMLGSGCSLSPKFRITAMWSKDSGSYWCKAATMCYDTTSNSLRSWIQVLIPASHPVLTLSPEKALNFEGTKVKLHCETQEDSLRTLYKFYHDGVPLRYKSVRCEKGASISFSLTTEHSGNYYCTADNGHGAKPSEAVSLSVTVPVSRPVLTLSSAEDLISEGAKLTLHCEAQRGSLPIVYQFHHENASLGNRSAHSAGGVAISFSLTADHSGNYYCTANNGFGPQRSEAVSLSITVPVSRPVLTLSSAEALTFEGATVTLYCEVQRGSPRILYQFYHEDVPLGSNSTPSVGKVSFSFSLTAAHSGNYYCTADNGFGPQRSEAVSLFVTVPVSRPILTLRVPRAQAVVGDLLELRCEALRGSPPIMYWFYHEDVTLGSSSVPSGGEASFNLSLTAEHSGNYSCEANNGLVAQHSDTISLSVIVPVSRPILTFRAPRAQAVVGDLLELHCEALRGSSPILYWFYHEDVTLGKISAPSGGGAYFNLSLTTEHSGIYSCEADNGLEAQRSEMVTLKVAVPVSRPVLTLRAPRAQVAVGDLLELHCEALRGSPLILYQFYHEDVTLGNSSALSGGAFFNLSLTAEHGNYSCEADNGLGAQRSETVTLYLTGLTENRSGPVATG

[5] = target: T3, soluble cynomolgus FcRH5 protein …; experiment: BIACORE (FIG. 15)
[6] = target: T3, soluble cynomolgus FcRH5 protein …; experiment: BIACORE, hIgG capture, 1:1 model, monovalent
[7] = target: T2, cynomolgus monkey FcRH5, full-length; experiment: flow cytometry, SVT2-cyno FcRH5 cells
human FcRH5, full-length = target: T4, human FcRH5, full-length (human, UniProt Q96RD9 16-977); experiment: cell-based or functional assay
T4 sequence: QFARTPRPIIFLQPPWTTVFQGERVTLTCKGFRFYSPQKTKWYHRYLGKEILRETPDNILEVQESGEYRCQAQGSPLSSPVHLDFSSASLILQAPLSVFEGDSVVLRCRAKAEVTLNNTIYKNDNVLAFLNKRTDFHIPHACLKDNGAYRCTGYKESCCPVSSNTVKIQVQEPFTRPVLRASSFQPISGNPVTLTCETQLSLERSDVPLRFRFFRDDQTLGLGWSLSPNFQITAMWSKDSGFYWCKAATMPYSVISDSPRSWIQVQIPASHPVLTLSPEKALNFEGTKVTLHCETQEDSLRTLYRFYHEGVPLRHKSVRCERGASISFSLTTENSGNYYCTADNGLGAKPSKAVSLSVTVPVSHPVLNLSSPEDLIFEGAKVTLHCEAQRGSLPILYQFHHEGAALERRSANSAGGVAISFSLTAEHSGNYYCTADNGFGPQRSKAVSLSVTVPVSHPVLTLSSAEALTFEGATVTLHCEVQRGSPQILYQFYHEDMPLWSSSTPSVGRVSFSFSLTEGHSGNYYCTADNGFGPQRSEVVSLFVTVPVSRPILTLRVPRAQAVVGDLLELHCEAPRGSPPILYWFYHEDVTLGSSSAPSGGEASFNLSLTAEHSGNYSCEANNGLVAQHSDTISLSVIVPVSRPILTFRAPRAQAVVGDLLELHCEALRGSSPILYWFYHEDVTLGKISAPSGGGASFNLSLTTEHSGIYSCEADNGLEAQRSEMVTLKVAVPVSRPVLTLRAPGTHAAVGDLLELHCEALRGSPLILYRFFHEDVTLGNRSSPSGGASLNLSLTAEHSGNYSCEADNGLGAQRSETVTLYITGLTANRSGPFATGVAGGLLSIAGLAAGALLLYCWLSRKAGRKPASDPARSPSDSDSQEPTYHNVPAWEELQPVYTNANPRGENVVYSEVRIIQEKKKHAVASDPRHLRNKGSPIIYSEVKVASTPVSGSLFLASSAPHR

B1: 17B1 (antibody, mouse IgG2a, V domains shown)
VH: QVQLQQSGPELVRPGVSVKISCKGSGYTFTHYAMHWVKQSHTKSLEWIGMISSSSGNTNFNQKFMDKATMTVDKSSTTAYLELARLTFGDSAIYYCARWSYYALFDYWGQGTTVTVSS
VL: ENVLTQSPAIMSASPGEKVTMTCSADSSVDYIHWYQQKSNTSPKLWIYDTSKLASGVPGRFSGSGSGNSYSLTISSMEAEDFATYYCFQGSGYPLTFGSGTKLELK
notes: mouse mAb, Campaign C; recombinant murine IgG2a for BIACORE
Binder B1 has a Kd [1] of 27 nM.

B2: 15G8 (antibody, mouse IgG2a, V domains shown)
VH: EVQLQQSGPELVKPGASVKMSCKASGYTFTNYVIHWMKQKPGQGLEWIGYISPYNDYTKYNEKFEGKATLTSDKSSNTAYMELSSLTSEDSAVYYCARRDYYGSSDYWGQGTTLTVSS
VL: QIVLTQSPAIMSASPGEKVTMTCSASSSVDYMHWYQQKSGTSPKKWIYDTSKLASGVPARFSGSGSGTSYSLTIGSMEAEDAATYYCQQWSSNPPTFGGGTKLEIK
notes: mouse mAb, Campaign C; recombinant murine IgG2a for BIACORE; also called mAb 15G8
With B2 the Kd [1] was 9.1 nM and the “KD difference between human and cynomolgus E11 domains” value [2] was roughly 20 fold.

B3: 1G7.v1.4/38E4.v1 TDB (bispecific antibody, V domains shown)
VH 1: EVQLVESGPGLVKPSETLSLTCTVSGFSLTRFGVHWVRQPPGKGLEWLGVIWRGGSTDYNAAFMSRLTISKDNSKNQVSLKLSSVTAADTAVYYCSNHYYGSSDYALDNWGQGTLVTVSS
VL 1: DIQMTQSPSSLSASVGDRVTITCKASQDVRNLVVWFQQKPGKAPKLLIYSGSYRYSGVPSRFSGSGSGTDFTLTISSLQPEDFATYYCQQHYSPPYTFGQGTKVEIK
VH 2: EVQLVQSGAEVKKPGASVKVSCKASGFTFTSYYIHWVRQAPGQGLEWIGWIYPENDNTKYNEKFKDRVTITADTSTSTAYLELSSLRSEDTAVYYCARDGYSRYYFDYWGQGTLVTVSS
VL 2: DIVMTQSPDSLAVSLGERATINCKSSQSLLNSRTRKNYLAWYQQKPGQSPKLLIYWTSTRKSGVPDRFSGSGSGTDFTLTISSLQAEDVAVYYCKQSFILRTFGQGTKVEIK
notes: knob-into-hole full-length TDB; also called 1G7.v1.4 TDB
In the case of B3, the binding result [3] is reported as “binds”, the Kd [4] is reported as 6.3 nM and the koff [4] is reported as 0.0008 s⁻¹. For the same binder, the kon [4] was 100000 M⁻¹ s⁻¹.

B4: hu1G7.v93/38E4.v1 TDB (bispecific antibody, V domains shown)
VH 1: B3 VH 1 with L29T, M64V, S103P
VL 1: B3 VL 1 with R30S
VH 2: B3 VH 2
VL 2: B3 VL 2
notes: knob-into-hole full-length TDB; also called 1G7.v93 TDB
B4 showed a Kd [5] of 8.1 nM.

B5: hu1G7.v1.4 (hIgG1) (antibody, V domains shown)
VH: B3 VH 1
VL: B3 VL 1
notes: human IgG1
In the case of B5, the Kd [4] is reported as 7.7 nM, the koff [4] is reported as 0.001 s⁻¹ and the kon [4] is reported as 100000 M⁻¹ s⁻¹.

B6: 1G7.v85/38E4.v1 TDB (bispecific antibody, V domains shown)
VH 1: B3 VH 1 with M64V
VL 1: B3 VL 1
VH 2: B3 VH 2
VL 2: B3 VL 2
notes: knob-into-hole full-length TDB; also called 1G7.v85 TDB; FcRH5 TDB
With B6 the Kd [6] was 6.76 nM, the binding result [7] was “binds” and the Kd [5] was 7.8 nM. For the same binder, the “killing of MOLP-2 cells, EC50” value (human FcRH5, full-length) was 0.058 nM, the “killing of SVT2-FcRH5 cells, IC50, in DMSO” value (human FcRH5, full-length) was 0.006 nM and the “killing of SVT2-FcRH5 cells, IC50, in buffer” value (human FcRH5, full-length) was 0.007 nM. For the same binder, the “killing of SVT2-FcRH5 cells, IC50, with 0.1 µM dexamethasone” value (human FcRH5, full-length) was 0.016 nM, the “killing of SVT2-FcRH5 cells, IC50, with 1 µM dexamethasone” value (human FcRH5, full-length) was 0.025 nM and the “killing of human bone marrow plasma cells, EC50” value (human FcRH5, full-length) was 0.085 to 0.18 nM. For the same binder, the Kd [4] was 6.8 nM, the koff [4] was 0.0008 s⁻¹ and the kon [4] was 100000 M⁻¹ s⁻¹.

B7: hu1G7.v85 (hIgG1) (antibody, V domains shown)
VH: B3 VH 1 with M64V
VL: B3 VL 1
notes: bivalent human IgG1; also called hu1G7.v1.4.M64V
Binder B7 has a Kd [4] of 7.2 nM, a koff [4] of 0.001 s⁻¹ and a kon [4] of 100000 M⁻¹ s⁻¹.
